{"source": "paper PMC10905646", "about": "(Molecular psychiatry, 2023)", "binders": {"B1": {"name": "GST-fused MAP6 Mn modules (GST-M115–221; aa 115–221 from MAP6N) (domain or fragment, UniProt Q63560 115-221, looked up)", "chain": "ADSVMRQDYRAWKVQRPEPSCRPRSEYQPSDAPFERETQYQKDFRAWPLPRRGDHPWIPKPVQIPATSQPSPPVLGMPKRRPQSQERGPIQLSADARDPEGAGGAGV"}}, "molecular_target": "T1, 6×His-tagged Kv3.1 T1 domain (His-31T1) (UniProt P25122 1-190)", "T1 sequence (looked up)": "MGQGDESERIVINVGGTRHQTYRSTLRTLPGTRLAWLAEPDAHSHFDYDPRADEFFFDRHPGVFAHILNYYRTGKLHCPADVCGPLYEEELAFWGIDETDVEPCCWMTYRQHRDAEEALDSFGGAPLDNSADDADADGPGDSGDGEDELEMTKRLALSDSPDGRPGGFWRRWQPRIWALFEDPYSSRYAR", "experiment": "SPR"}
{"binder": "B1", "values": [{"measurement": "Kd", "result": "62.5 ± 18.4", "unit": "nM"}]}
